{"source": "patent US20160376321A1", "about": "(BAYLOR COLLEGE OF MEDICINE, published 2016)", "binders": {"B1": {"name": "recombinant protein containing RBD of Middle East respiratory syndrome coronavirus (MERS-CoV) (other)", "chain": "QAEGVECDFSPLLSGTPPQVYNFKRLVFTNCNYNLTKLLSLFSVNDFTCSQISPAAIASNCYSSLILDYFSYPLSMKSDLSVSSAGPISQFNYKQSFSNPTCLILATVPHNLTTITKPLKYSYINKCSRFLSDDRTEVPQLVNANQYSPCVSIVPSTVWEDGDYYRKQLSPLEGGGWLVASGSTVAMTEQLQMGFGITVQYGTDTNSVCPKL"}}, "molecular_target": "soluble ACE2 (sACE2), containing 6xHis tag (R&D Systems) (human, UniProt Q9BYF1 18-740)", "experiment": "Ni-NTA pull-down with His-tagged sACE2, Western blot (FIG. 7B-C)", "data": [{"binder": "B1", "values": [{"measurement": "binding result", "value": "no binding (tested: 20 µg)"}]}]}
